Data set [1] has as its target T1, Helraiser transposase (Myotis lucifugus, UniProt Z9MI32ZQP9, K1068Q).
T1 construct: full-length synthesized consensus transposase, 1,496 aa (N-terminal domain, Rep HUH nuclease, SF1 helicase); baculovirus expression, purified
T1 sequence (Z9MI32ZQP9 1-1496 K1068Q): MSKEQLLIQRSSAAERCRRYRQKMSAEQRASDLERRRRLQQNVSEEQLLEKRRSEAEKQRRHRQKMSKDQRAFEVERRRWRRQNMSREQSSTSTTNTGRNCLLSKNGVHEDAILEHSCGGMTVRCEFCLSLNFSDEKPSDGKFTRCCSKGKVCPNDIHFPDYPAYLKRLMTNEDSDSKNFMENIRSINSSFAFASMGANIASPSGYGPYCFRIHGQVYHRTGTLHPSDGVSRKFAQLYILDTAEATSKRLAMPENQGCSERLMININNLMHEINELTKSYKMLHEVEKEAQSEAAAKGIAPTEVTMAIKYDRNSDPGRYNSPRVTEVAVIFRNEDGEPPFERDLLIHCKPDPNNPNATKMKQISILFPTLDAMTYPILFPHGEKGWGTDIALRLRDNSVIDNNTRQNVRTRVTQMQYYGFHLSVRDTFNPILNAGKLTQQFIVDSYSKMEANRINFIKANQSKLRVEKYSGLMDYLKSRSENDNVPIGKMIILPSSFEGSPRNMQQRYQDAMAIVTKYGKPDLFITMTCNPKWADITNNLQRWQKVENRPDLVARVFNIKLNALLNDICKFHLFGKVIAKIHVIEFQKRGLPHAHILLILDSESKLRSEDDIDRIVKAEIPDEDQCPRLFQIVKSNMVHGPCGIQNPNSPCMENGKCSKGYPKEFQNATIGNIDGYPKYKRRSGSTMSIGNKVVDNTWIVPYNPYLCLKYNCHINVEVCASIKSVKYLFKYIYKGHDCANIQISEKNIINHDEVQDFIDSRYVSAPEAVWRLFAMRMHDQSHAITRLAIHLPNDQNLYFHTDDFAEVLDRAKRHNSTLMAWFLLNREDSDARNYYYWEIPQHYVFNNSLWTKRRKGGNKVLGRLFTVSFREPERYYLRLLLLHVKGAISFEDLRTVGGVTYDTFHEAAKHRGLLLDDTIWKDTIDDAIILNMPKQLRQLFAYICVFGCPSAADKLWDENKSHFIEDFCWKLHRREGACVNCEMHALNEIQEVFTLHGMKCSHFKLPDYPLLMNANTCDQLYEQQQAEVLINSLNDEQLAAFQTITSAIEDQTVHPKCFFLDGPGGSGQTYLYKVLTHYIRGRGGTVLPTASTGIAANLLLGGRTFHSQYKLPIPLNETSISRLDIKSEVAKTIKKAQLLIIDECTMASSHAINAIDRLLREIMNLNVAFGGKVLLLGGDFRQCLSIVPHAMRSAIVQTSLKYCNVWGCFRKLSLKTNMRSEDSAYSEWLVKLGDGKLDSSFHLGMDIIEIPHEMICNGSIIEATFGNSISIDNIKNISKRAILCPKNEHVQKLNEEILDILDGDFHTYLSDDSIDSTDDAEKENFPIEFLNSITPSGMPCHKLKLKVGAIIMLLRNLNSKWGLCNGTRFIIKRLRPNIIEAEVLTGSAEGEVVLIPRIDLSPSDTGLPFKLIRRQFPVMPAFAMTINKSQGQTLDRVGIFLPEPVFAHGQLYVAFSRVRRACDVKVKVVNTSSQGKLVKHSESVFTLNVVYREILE
Description: colorimetric ATPase assay (pyrophosphate release as printed). The note with it: Walker A mutant; ATP hydrolysis abolished. The format is biochemical.

Substrate in data set [2]: Nc1ncnc2c1ncn2[C@@H]1O[C@H](COP(=O)(O)OP(=O)(O)OP(=O)(O)O)[C@@H](O)[C@H]1O
Described as above. Type of data set: biochemical, Myotis lucifugus. The note with it: DNA, metal, pH and temperature of the Km measurement not told in main text; helicase domain (Walker A) site.

The results in this text go back to PMC4778049, “A Helitron transposon reconstructed from bats reveals a novel mechanism of genome shuffling in eukaryotes” (Nature Communications, 2016).

For `Nc1ncnc2c1ncn2[C@@H]1O[C@H](COP(=O)(O)OP(=O)(O)OP(=O)(O)O)[C@@H](O)[C@H]1O` [ATP], the “colorimetric ATPase assay (pyrophosphate release as printed)” value in data set [1] is “Mutation of the Walker A motif K1068 abolished ATP hydrolysis”.

B1: Helraiser transposase (Myotis lucifugus) (protein)
chain: MSKEQLLIQRSSAAERCRRYRQKMSAEQRASDLERRRRLQQNVSEEQLLEKRRSEAEKQRRHRQKMSKDQRAFEVERRRWRRQNMSREQSSTSTTNTGRNCLLSKNGVHEDAILEHSCGGMTVRCEFCLSLNFSDEKPSDGKFTRCCSKGKVCPNDIHFPDYPAYLKRLMTNEDSDSKNFMENIRSINSSFAFASMGANIASPSGYGPYCFRIHGQVYHRTGTLHPSDGVSRKFAQLYILDTAEATSKRLAMPENQGCSERLMININNLMHEINELTKSYKMLHEVEKEAQSEAAAKGIAPTEVTMAIKYDRNSDPGRYNSPRVTEVAVIFRNEDGEPPFERDLLIHCKPDPNNPNATKMKQISILFPTLDAMTYPILFPHGEKGWGTDIALRLRDNSVIDNNTRQNVRTRVTQMQYYGFHLSVRDTFNPILNAGKLTQQFIVDSYSKMEANRINFIKANQSKLRVEKYSGLMDYLKSRSENDNVPIGKMIILPSSFEGSPRNMQQRYQDAMAIVTKYGKPDLFITMTCNPKWADITNNLQRWQKVENRPDLVARVFNIKLNALLNDICKFHLFGKVIAKIHVIEFQKRGLPHAHILLILDSESKLRSEDDIDRIVKAEIPDEDQCPRLFQIVKSNMVHGPCGIQNPNSPCMENGKCSKGYPKEFQNATIGNIDGYPKYKRRSGSTMSIGNKVVDNTWIVPYNPYLCLKYNCHINVEVCASIKSVKYLFKYIYKGHDCANIQISEKNIINHDEVQDFIDSRYVSAPEAVWRLFAMRMHDQSHAITRLAIHLPNDQNLYFHTDDFAEVLDRAKRHNSTLMAWFLLNREDSDARNYYYWEIPQHYVFNNSLWTKRRKGGNKVLGRLFTVSFREPERYYLRLLLLHVKGAISFEDLRTVGGVTYDTFHEAAKHRGLLLDDTIWKDTIDDAIILNMPKQLRQLFAYICVFGCPSAADKLWDENKSHFIEDFCWKLHRREGACVNCEMHALNEIQEVFTLHGMKCSHFKLPDYPLLMNANTCDQLYEQQQAEVLINSLNDEQLAAFQTITSAIEDQTVHPKCFFLDGPGGSGKTYLYKVLTHYIRGRGGTVLPTASTGIAANLLLGGRTFHSQYKLPIPLNETSISRLDIKSEVAKTIKKAQLLIIDECTMASSHAINAIDRLLREIMNLNVAFGGKVLLLGGDFRQCLSIVPHAMRSAIVQTSLKYCNVWGCFRKLSLKTNMRSEDSAYSEWLVKLGDGKLDSSFHLGMDIIEIPHEMICNGSIIEATFGNSISIDNIKNISKRAILCPKNEHVQKLNEEILDILDGDFHTYLSDDSIDSTDDAEKENFPIEFLNSITPSGMPCHKLKLKVGAIIMLLRNLNSKWGLCNGTRFIIKRLRPNIIEAEVLTGSAEGEVVLIPRIDLSPSDTGLPFKLIRRQFPVMPAFAMTINKSQGQTLDRVGIFLPEPVFAHGQLYVAFSRVRRACDVKVKVVNTSSQGKLVKHSESVFTLNVVYREILE
notes: full-length synthesized consensus transposase, 1,496 aa (N-terminal domain, Rep HUH nuclease, SF1 helicase); baculovirus expression, purified
In general, Km refers to the concentration of substrate that gives half-maximal velocity. By kcat is commonly meant the maximal rate divided by the concentration of active sites. For the molecule B1, in data set [2], the Michaelis-Menten constant (Km) is 46 ± 3.3 µM and the kcat worked out at 6.8 ± 0.11 s⁻¹.
